Results on 2 proteins are retold here after publication PMC7461980, “High-Level Production of Recombinant Snowdrop Lectin in Sugarcane and Energy Cane” (Frontiers in Bioengineering and Biotechnology, 2020).

Several values for one entry are separate records, joined by “and”; a condition that tells them apart may be missing. Equal entries are not always repeated.

Series [1] deals with the molecule itself. As to the kind of experiment: MALDI-TOF MS; non-reducing conditions; sinapinic acid matrix; linear delayed positive ion mode; mass range 4,500-50,000 Da.
Series [2] concerns the molecule itself. As to the kind of experiment: SEC; TSKgel G3000SW xL, HPLC; 50 mM sodium phosphate, 0.3 M NaCl, pH 7.0; non-reducing conditions; 1.0 mL/min; absorbance at 220 and 280 nm; mass standards 6.5-675 kDa. A general note: SEC sorts molecules by how far they enter the pores of the column.
Series [3] concerns the target P30617. The description is as above.

B1: sugarcane recombinant GNA (Galanthus nivalis agglutinin, snowdrop lectin LECGNA2) (natural protein, UniProt P30617 20-128, looked up)
chain: DNILYSGETLSTGEFLNYGSFVFIMQEDCNLVLYDVDKPIWATNTGGLSRSCFLSMQTDGNLVVYNPSNKPIWASNTGGQNGNYVCILQKDRNVVIYGTDRWATG
notes: Galanthus nivalis L. (snowdrop) lectin LECGNA2, expressed from the full-length cDNA (570 bp); the purified product is a band corresponding to mature GNA (about 12.0 kDa); The exact C-terminal end of the processed protein in sugarcane is not determined; native GNA 12,054.41 Da theoretical; also called sugarcane GNA
The term stoichiometry N denotes the number of molecules, sites or subunits per partner or assembly. For the protein B1, the “stoichiometry N” value in series [1] was 2 and 3; in series [2], 4. Further, the “purity (relative peak abundance) of the tetramer” value in series [3] is “The purities of the recombinant GNA monomer and tetramer were 65.5% and 24%, respectively”.

B2: recombinant GNA109 (G. nivalis lectin LECGNA2 with four additional amino acids, Thr106 His107 Thr108 Gly109, at the C-terminus of the mature protein) (natural protein, Galanthus nivalis)
chain: DNILYSGETLSTGEFLNYGSFVFIMQEDCNLVLYDVDKPIWATNTGGLSRSCFLSMQTDGNLVVYNPSNKPIWASNTGGQNGNYVCILQKDRNVVIYGTDRWATGTHTG
notes: numbers count on: the mature protein; four additional amino acids Thr106 His107 Thr108 Gly109 at the C-terminus of the mature protein; Theoretical mass printed: 12,051.42 Da; source: synthesized (GenScript); purified using immobilized mannose
With B2, the “stoichiometry N” value in series [1] was 2 and 3.
